According to US20210102001A1 (CHIMAGEN BIOSCIENCES, published 2021):

Columns and labels:
[1] = biological target: T1, human CD3E (human, UniProt P07766 23-126, limits assumed); experiment: SPR (BIAcore); human CD3E captured on anti-His antibody chip, antibody at 5 concentrations
T1 construct: Captured on chips carrying anti-histidine antibodies, 'using the same method' as the His-tagged CD19
Experimental: (§1) Binding affinity for human CD3E or human CD19 of the CD3×CD19×CD8 tri-specific antibody was tested by BIAcore. Kₐ, Kd and KD were calculated from the experimental results and used to evaluate affinity of the antibodies for human CD3E and CD19. CD3E and CD19 molecules as ligands were immobilized to chips conjugated with anti-histine antibodies. Antibody molecules in five different concentrations were analyzed for their affinity for CD19. Affinity for human CD3E was examined using the same method.

[2] = biological target: T2, human CD19 (His-tagged) (human, UniProt P15391 20-291); experiment: SPR (BIAcore); human CD19 captured on anti-His antibody chip, antibody at 5 concentrations
T2 construct: Captured on chips carrying anti-histidine antibodies
T2 sequence (looked up): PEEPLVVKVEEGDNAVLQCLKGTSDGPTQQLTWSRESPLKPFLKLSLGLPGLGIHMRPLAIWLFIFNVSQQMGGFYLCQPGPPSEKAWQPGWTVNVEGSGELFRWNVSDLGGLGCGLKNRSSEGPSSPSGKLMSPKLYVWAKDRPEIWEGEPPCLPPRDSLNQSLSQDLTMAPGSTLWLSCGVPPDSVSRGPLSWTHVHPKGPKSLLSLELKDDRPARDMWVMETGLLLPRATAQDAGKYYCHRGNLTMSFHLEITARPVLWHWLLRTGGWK
Experimental: as §1

T1 sequence (P07766 23-126 limits assumed): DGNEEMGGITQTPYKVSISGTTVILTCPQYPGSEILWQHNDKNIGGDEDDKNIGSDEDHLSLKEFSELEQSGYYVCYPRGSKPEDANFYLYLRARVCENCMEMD

B1: Antibody #55, CD3×CD19×CD8 tri-specific antibody (other)
chain 1: EIVLTQSPATLSVTPGERATLSCSASSSVSYMHWYQKKPGQAPRLLIYDTSKLASGIPARFSGSGSGTDFTLTISSLEPEDFAVYYCFQGSVYPFTFGCGTKLEIKRTVAAEVQLVESGGGLVQPGGSLRLSCAASGFTFNTYAMNWVRKAPGKGLEWVGRIRSKYNNYATYYADSVDKGRFTISRDDSKNSLYLQMNSLKTEDTAVYYCVRHGNFGNSYVSWFAYWGQGTLVTVSS
chain 2: EAVVTQEPSLTVSPGGTVTLTCRSSTGAVTTSNYANWVQDKPGQAPRGLIGGTNKRAPWTPARFSGSLLGGKAALTITGAQPEDEAGYYCALWYSNLWVFGGGTKLTVLRTVAAQVQLQESGPGLVKPSQTLSLTCTVSGGSISTSGMGVGWIRDHPGKCLEWIGHIWWDDDKRYNPALKSRVTISVDTSKNQFSLKLSSVTAADTAVYYCARMELWSYYFDYWGQGTTLTVSSASEPKSDKTHTCPPCPAPPVAGGPSVPLPPPKPKDTLMISRTPEVTCVVVDVSQEDPEVKFNWYVDGVGVHNAKTKPREEQFNSTYRVVSVLTVLHQDWLNGKEYKCKVSNKGLPSSIEKTISKAKGQPREPQVYTLPPCRDELTKNQVSLWCLVKGFYPSDIAVEWESNGQPENNYKTTPPVLDSDGSFFLYSKLTVDKSRWQQGNVFSCSVMHEALHNHYTQKSLSLSPGK
heavy: QVQLVESGGGVVQPGRSLRLSCAASGPTFSDFGMNWVRKAPGKGLEWVALIYYDGSNKFYADSVKGRFTISRDNSKNTLYLQMNSLRAEDTAVYYCAKPHYDGYYHFFDSWGQGTLVTVSSASTKGPSVFPLAPGSSKSTSGTAALGCLVKDYFPEPVTVSWNSGALTSGVHTFPAVLQSSGLYSLSSVVTVPSSSLGTQTYICNVNHKPSNTKVDKKVEPKSCDKTHTCPPCPAPPVAGGPSVFLFPPKPKDTLMISRTPEVTCVVVDVSQEDPEVKFNWYVDGVEVHNAKTKPREEQFNSTYRVVSVLTVLHQDWLNGKEYKCKVSNKGLPSSIEKTISKAKGQPREPQVCTLPPSRDELTKNQVSLSCAVKGFYPSDIAVEWESNGQPENNYKTTPPVLDSDGSFFLVSKLTVDKSRWQQGNVFSCSVMHEALHNRFTQKSLSLSPGK
light: not shown
notes: Tri-specific antibody of four chains
Kd [1]: 31.3 nM
Kd [2]: 8.63 nM
